{"source": "the supplement of paper PMC7877785", "assay": "self-splicing fitness, log relative to wild type (ln ratio); higher = more splicing; Tetrahymena group I intron in knt gene, E. coli kanamycin selection, DiMSum; sequences stand for … in CUCUCU…GGAGGGAAAAGUUAUCAGGCAUGCACCUGGUAGCUAGUCUUUAAACCAAUAGAUUGCAUCGGUUUAAAAGGCAAGACCGUCAAAUUGCGGGAAAGGGGUCAACAGCCGUUCAGUACCAAGUCUCAGGGGAAACUUUGAGAUGGCCUUGCAAAGGGUAUGGUAAUAAGCUGACGGACAUGGUCCUAACCACGCAGCCAAGUCCUAAGUCAACAGAUCUUCUGUUGAUAUGGAUGCAGUUCACAGACUAAAUGUCGGUCGGGGAAGAUGUAUUCUUCUCAUAAGAUAUAGUCGGACCUCUCCUUAAUGGGAGCUAGCGGAUGAAGUGAUGCAACACUGGAGCCGCUGGGAACUAAUUUGUAUGCGAAAGUAUAUUGAUUAGUUUUGGAGUACUCGUGGUCG", "how_it_was_run": "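Library with all eight P1ex-region intron nucleotides randomised, intron inside the knt kanamycin-resistance gene on pET-22b(+), in E. coli BL21(DE3). Cells grew overnight at 37°C or 30°C on LB agar with or without 25 μg/mL kanamycin (plus 100 μg/mL carbenicillin, 50 μM IPTG, 0.2% rhamnose), in six replicate transformations. Pooled colonies were amplicon-sequenced on Illumina HiSeq 2500. DiMSum fitness is the error-weighted combination of wild-type-normalised replicate fold changes, kanamycin versus none.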", "note": "± gives the uncertainty stated by the source."}
{"sequence": "GUCCAGCAAUAUUACGUAAU", "values": [{"measurement": "self-splicing fitness (ln)", "setting": "30 °C", "value": "-0.156 ± 0.07"}, {"measurement": "self-splicing fitness (ln)", "setting": "37 °C", "value": "0.76 ± 0.081"}]}
{"sequence": "GAAGAGCAAUAUUACGAGUC", "values": [{"measurement": "self-splicing fitness (ln)", "setting": "30 °C", "value": "-4.22 ± 0.46"}, {"measurement": "self-splicing fitness (ln)", "setting": "37 °C", "value": "-2.8 ± 0.47"}]}
{"sequence": "CGUUAGCAAUAUUACGGGCA", "values": [{"measurement": "self-splicing fitness (ln)", "setting": "30 °C", "value": "-0.756 ± 0.15"}, {"measurement": "self-splicing fitness (ln)", "setting": "37 °C", "value": "-1.2 ± 0.11"}]}
{"sequence": "CGAGAGCAAUAUUACGAUCU", "values": [{"measurement": "self-splicing fitness (ln)", "setting": "30 °C", "value": "-2.45 ± 0.42"}]}
{"sequence": "ACGAAGCAAUAUUACGCGAU", "values": [{"measurement": "self-splicing fitness (ln)", "setting": "30 °C", "value": "-2.21 ± 0.13"}, {"measurement": "self-splicing fitness (ln)", "setting": "37 °C", "value": "-0.777 ± 0.14"}]}
{"sequence": "CGUGAGCAAUAUUACGGUUG", "values": [{"measurement": "self-splicing fitness (ln)", "setting": "30 °C", "value": "-1.49 ± 0.07"}, {"measurement": "self-splicing fitness (ln)", "setting": "37 °C", "value": "-0.412 ± 0.094"}]}
{"sequence": "CCAGAGCAAUAUUACGAUCG", "values": [{"measurement": "self-splicing fitness (ln)", "setting": "30 °C", "value": "-0.986 ± 0.11"}, {"measurement": "self-splicing fitness (ln)", "setting": "37 °C", "value": "-0.589 ± 0.14"}]}
{"sequence": "ACACAGCAAUAUUACGCACG", "values": [{"measurement": "self-splicing fitness (ln)", "setting": "30 °C", "value": "-0.797 ± 0.093"}, {"measurement": "self-splicing fitness (ln)", "setting": "37 °C", "value": "-0.607 ± 0.12"}]}
{"sequence": "GUGAAGCAAUAUUACGCACU", "values": [{"measurement": "self-splicing fitness (ln)", "setting": "30 °C", "value": "-3.68 ± 0.47"}, {"measurement": "self-splicing fitness (ln)", "setting": "37 °C", "value": "-2.19 ± 0.29"}]}
{"sequence": "UUACAGCAAUAUUACGGAGG", "values": [{"measurement": "self-splicing fitness (ln)", "setting": "30 °C", "value": "-2.31 ± 0.22"}, {"measurement": "self-splicing fitness (ln)", "setting": "37 °C", "value": "-2.1 ± 0.36"}]}
{"sequence": "UCUCAGCAAUAUUACGGUCU", "values": [{"measurement": "self-splicing fitness (ln)", "setting": "30 °C", "value": "-3.23 ± 0.2"}, {"measurement": "self-splicing fitness (ln)", "setting": "37 °C", "value": "-1.74 ± 0.15"}]}
{"sequence": "CUCUAGCAAUAUUACGUCCG", "values": [{"measurement": "self-splicing fitness (ln)", "setting": "30 °C", "value": "-2.91 ± 0.18"}, {"measurement": "self-splicing fitness (ln)", "setting": "37 °C", "value": "-0.955 ± 0.14"}]}
{"sequence": "GCUUAGCAAUAUUACGCAUC", "values": [{"measurement": "self-splicing fitness (ln)", "setting": "30 °C", "value": "-1.04 ± 0.069"}, {"measurement": "self-splicing fitness (ln)", "setting": "37 °C", "value": "-0.56 ± 0.091"}]}
{"sequence": "GGCGAGCAAUAUUACGCGUC", "values": [{"measurement": "self-splicing fitness (ln)", "setting": "37 °C", "value": "-2.65 ± 0.39"}]}
{"sequence": "AAGGAGCAAUAUUACGAAUG", "values": [{"measurement": "self-splicing fitness (ln)", "setting": "30 °C", "value": "-2.39 ± 0.22"}]}
{"sequence": "ACCUAGCAAUAUUACGUAAC", "values": [{"measurement": "self-splicing fitness (ln)", "setting": "30 °C", "value": "-2.22 ± 0.12"}, {"measurement": "self-splicing fitness (ln)", "setting": "37 °C", "value": "-1.66 ± 0.18"}]}
{"sequence": "AGUGAGCAAUAUUACGGGAA", "values": [{"measurement": "self-splicing fitness (ln)", "setting": "30 °C", "value": "-2.94 ± 0.29"}]}
{"sequence": "UUAGAGCAAUAUUACGAAAU", "values": [{"measurement": "self-splicing fitness (ln)", "setting": "30 °C", "value": "-3.77 ± 0.34"}, {"measurement": "self-splicing fitness (ln)", "setting": "37 °C", "value": "-3.04 ± 0.47"}]}
{"sequence": "ACCGAGCAAUAUUACGAUCA", "values": [{"measurement": "self-splicing fitness (ln)", "setting": "30 °C", "value": "-2.6 ± 0.24"}, {"measurement": "self-splicing fitness (ln)", "setting": "37 °C", "value": "-0.928 ± 0.19"}]}
{"sequence": "GGGGAGCAAUAUUACGACUU", "values": [{"measurement": "self-splicing fitness (ln)", "setting": "30 °C", "value": "-1.2 ± 0.16"}, {"measurement": "self-splicing fitness (ln)", "setting": "37 °C", "value": "0.242 ± 0.22"}]}
{"sequence": "CUCUAGCAAUAUUACGUGAG", "values": [{"measurement": "self-splicing fitness (ln)", "setting": "30 °C", "value": "-3.45 ± 0.18"}, {"measurement": "self-splicing fitness (ln)", "setting": "37 °C", "value": "-2.12 ± 0.19"}]}
{"sequence": "CGUGAGCAAUAUUACGAACC", "values": [{"measurement": "self-splicing fitness (ln)", "setting": "30 °C", "value": "-1.44 ± 0.18"}, {"measurement": "self-splicing fitness (ln)", "setting": "37 °C", "value": "-0.0387 ± 0.24"}]}
{"sequence": "UAGGAGCAAUAUUACGUUCC", "values": [{"measurement": "self-splicing fitness (ln)", "setting": "30 °C", "value": "-2.97 ± 0.4"}]}
{"sequence": "UGAUAGCAAUAUUACGAAGU", "values": [{"measurement": "self-splicing fitness (ln)", "setting": "30 °C", "value": "-3.67 ± 0.25"}, {"measurement": "self-splicing fitness (ln)", "setting": "37 °C", "value": "-3.22 ± 0.26"}]}
{"sequence": "GUGUAGCAAUAUUACGUUCG", "values": [{"measurement": "self-splicing fitness (ln)", "setting": "30 °C", "value": "-1.65 ± 0.091"}, {"measurement": "self-splicing fitness (ln)", "setting": "37 °C", "value": "-0.693 ± 0.11"}]}
{"sequence": "UACGAGCAAUAUUACGGUAU", "values": [{"measurement": "self-splicing fitness (ln)", "setting": "30 °C", "value": "-3.12 ± 0.26"}, {"measurement": "self-splicing fitness (ln)", "setting": "37 °C", "value": "-3.28 ± 0.3"}]}
{"sequence": "CCCGAGCAAUAUUACGGGUC", "values": [{"measurement": "self-splicing fitness (ln)", "setting": "30 °C", "value": "-4.34 ± 0.28"}, {"measurement": "self-splicing fitness (ln)", "setting": "37 °C", "value": "-2.12 ± 0.23"}]}
{"sequence": "CUUUAGCAAUAUUACGCCUU", "values": [{"measurement": "self-splicing fitness (ln)", "setting": "30 °C", "value": "-2.77 ± 0.31"}, {"measurement": "self-splicing fitness (ln)", "setting": "37 °C", "value": "-2.94 ± 0.43"}]}
{"sequence": "AUCGAGCAAUAUUACGUAAG", "values": [{"measurement": "self-splicing fitness (ln)", "setting": "30 °C", "value": "-2.16 ± 0.44"}, {"measurement": "self-splicing fitness (ln)", "setting": "37 °C", "value": "-1.61 ± 0.3"}]}
{"sequence": "AGAGAGCAAUAUUACGUAGA", "values": [{"measurement": "self-splicing fitness (ln)", "setting": "30 °C", "value": "-3.63 ± 0.25"}, {"measurement": "self-splicing fitness (ln)", "setting": "37 °C", "value": "-2.65 ± 0.34"}]}
{"sequence": "AUCUAGCAAUAUUACGCGAU", "values": [{"measurement": "self-splicing fitness (ln)", "setting": "37 °C", "value": "-2.53 ± 0.29"}]}
{"sequence": "UAAUAGCAAUAUUACGGCCG", "values": [{"measurement": "self-splicing fitness (ln)", "setting": "30 °C", "value": "-0.212 ± 0.12"}, {"measurement": "self-splicing fitness (ln)", "setting": "37 °C", "value": "0.0754 ± 0.16"}]}
{"sequence": "UACUAGCAAUAUUACGACAG", "values": [{"measurement": "self-splicing fitness (ln)", "setting": "30 °C", "value": "-1.04 ± 0.1"}, {"measurement": "self-splicing fitness (ln)", "setting": "37 °C", "value": "-0.806 ± 0.13"}]}
{"sequence": "CGGCAGCAAUAUUACGGGGC", "values": [{"measurement": "self-splicing fitness (ln)", "setting": "30 °C", "value": "-2.42 ± 0.18"}, {"measurement": "self-splicing fitness (ln)", "setting": "37 °C", "value": "-2.69 ± 0.33"}]}
{"sequence": "UGACAGCAAUAUUACGGACA", "values": [{"measurement": "self-splicing fitness (ln)", "setting": "30 °C", "value": "-0.474 ± 0.08"}, {"measurement": "self-splicing fitness (ln)", "setting": "37 °C", "value": "0.431 ± 0.12"}]}
{"sequence": "CCGGAGCAAUAUUACGUGUC", "values": [{"measurement": "self-splicing fitness (ln)", "setting": "30 °C", "value": "-3.36 ± 0.14"}, {"measurement": "self-splicing fitness (ln)", "setting": "37 °C", "value": "-2.82 ± 0.14"}]}
{"sequence": "AGCAAGCAAUAUUACGCCUU", "values": [{"measurement": "self-splicing fitness (ln)", "setting": "30 °C", "value": "-1.24 ± 0.1"}, {"measurement": "self-splicing fitness (ln)", "setting": "37 °C", "value": "0.351 ± 0.11"}]}
{"sequence": "CACUAGCAAUAUUACGUAAG", "values": [{"measurement": "self-splicing fitness (ln)", "setting": "30 °C", "value": "0.264 ± 0.061"}, {"measurement": "self-splicing fitness (ln)", "setting": "37 °C", "value": "0.0438 ± 0.073"}]}
{"sequence": "ACCCAGCAAUAUUACGAGAC", "values": [{"measurement": "self-splicing fitness (ln)", "setting": "30 °C", "value": "-2.34 ± 0.17"}, {"measurement": "self-splicing fitness (ln)", "setting": "37 °C", "value": "-1.89 ± 0.18"}]}
{"sequence": "CUAGAGCAAUAUUACGGAAC", "values": [{"measurement": "self-splicing fitness (ln)", "setting": "30 °C", "value": "-1.38 ± 0.17"}]}
